The assay addresses T1, human ΔN-Chordin (human, UniProt Q9H2X0 127-955).
T1 construct: Chordin, human, truncated form missing the N-terminal vWC1 domain but retaining the C-terminal vWC2-4 domains; source: purified, recombinantly expressed; prepared as described previously (Troilo et al., 2014)
T1 sequence (looked up): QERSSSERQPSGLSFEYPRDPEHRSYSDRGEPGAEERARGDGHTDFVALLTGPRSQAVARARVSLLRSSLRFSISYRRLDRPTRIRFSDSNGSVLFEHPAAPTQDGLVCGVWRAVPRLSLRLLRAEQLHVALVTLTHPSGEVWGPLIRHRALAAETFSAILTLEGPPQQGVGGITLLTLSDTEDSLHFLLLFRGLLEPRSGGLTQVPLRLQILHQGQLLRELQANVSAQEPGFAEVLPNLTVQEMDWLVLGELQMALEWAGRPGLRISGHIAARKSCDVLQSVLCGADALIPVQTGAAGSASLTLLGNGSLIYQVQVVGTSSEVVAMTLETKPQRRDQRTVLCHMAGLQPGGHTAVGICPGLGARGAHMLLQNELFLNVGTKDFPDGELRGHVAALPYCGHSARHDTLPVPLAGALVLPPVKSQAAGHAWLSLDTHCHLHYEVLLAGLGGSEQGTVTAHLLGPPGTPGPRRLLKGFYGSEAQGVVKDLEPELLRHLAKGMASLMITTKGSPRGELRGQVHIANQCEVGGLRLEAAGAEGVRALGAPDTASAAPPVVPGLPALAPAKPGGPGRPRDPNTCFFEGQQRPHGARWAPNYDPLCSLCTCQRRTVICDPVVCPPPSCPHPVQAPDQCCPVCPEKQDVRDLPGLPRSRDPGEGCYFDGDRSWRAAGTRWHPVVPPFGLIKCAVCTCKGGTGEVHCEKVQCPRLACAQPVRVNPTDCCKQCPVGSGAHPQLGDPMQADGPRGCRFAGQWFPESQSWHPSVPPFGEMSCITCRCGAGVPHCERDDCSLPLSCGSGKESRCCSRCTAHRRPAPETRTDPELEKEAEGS
Nature of the assay: SPR; Biacore T200; wildtype or mutant Tsg immobilised on CM5 by amine coupling (350 RU); analyte (ΔN-Chordin or CHRDL2) in a two-fold series, 30 μl/min, 200 s, 300 s dissociation; 20 mM HEPES, 150 mM NaCl, 0.05% Tween20, pH 7.4, 25°C; Langmuir 1:1 fit; triplicate. To be noted: both partners purified. (In general: Surface plasmon resonance follows binding to a sensor surface in real time, without labels.)

These results are taken from article doi:10.1101/2024.07.08.602551, “An avidity-driven mechanism of extracellular BMP regulation by Twisted gastrulation” (bioRxiv, 2024).

B1: human Twisted gastrulation (residues Cys26-Phe223) (natural protein, UniProt Q9GZX9 26-223, looked up)
chain: CNKALCASDVSKCLIQELCQCRPGEGNCSCCKECMLCLGALWDECCDCVGMCNPRNYSDTPPTSKSTVEELHEPIPSLFRALTEGDTQLNWNIVSFPVAEELSHHENLVSFLETVNQPHHQNVSVPSNNVHAPYSSDKEHMCTVVYFDDCMSIHQCKISCESMGASKYRWFHNACCECIGPECIDYGSKTVKCMNCMF
notes: Cloned in the vector pHLsec (Addgene_99845) between AgeI and KpnI; secreted; also called Tsg; human Tsg; source: Expi293-F cells, transfected, purified from conditioned media (Strep-Tactin XT, SEC)
In the case of B1, the Kd was determined as 14 nM.

B2: human Twisted gastrulation Leu107Ala (natural protein, UniProt Q9GZX9 26-223, looked up)
chain: CNKALCASDVSKCLIQELCQCRPGEGNCSCCKECMLCLGALWDECCDCVGMCNPRNYSDTPPTSKSTVEELHEPIPSLFRAATEGDTQLNWNIVSFPVAEELSHHENLVSFLETVNQPHHQNVSVPSNNVHAPYSSDKEHMCTVVYFDDCMSIHQCKISCESMGASKYRWFHNACCECIGPECIDYGSKTVKCMNCMF
notes: Twisted gastrulation (Tsg), human, residues Cys26-Phe223, with the point mutation L107A; Point mutant of m1 made by PCR and In-Fusion cloning; also called Tsg^L107A; source: Expi293-F cells, transfected, purified from conditioned media (Strep-Tactin XT, SEC)
Molecule B2 gave a Kd of 60 nM.

The Kd is the free concentration of one partner at which half of the binding sites on the other are occupied at equilibrium, for simple one-to-one binding.
